For experiment [1], the target named is human HHLA2 over-expressed on 300.19 mouse pre-B leukemic cells (human) (UniProt Q9UM44). Nature of the experiment: flow cytometry; TMIGD2-Fc binding to 300.19 HHLA2 cells with 10 ug/mL control IgG, against antigen only. Background: A flow cytometer gives signals particle by particle.
Experiment [2] shares this target. As to the kind of experiment: flow cytometry; 15 ug/ml antibody on 300.19-human HHLA2 cells, PE-conjugated anti-human secondary antibody.
For experiment [3] the target is unchanged. As to the kind of experiment: flow cytometry; 10 ug/mL control IgG with 4 ug/mL biotinylated human TMIGD2-Fc, added to 300.19 HHLA2 cells.
Experiment [4] deals with T1, biotinylated human HHLA2-Fc (human, UniProt Q9UM44 23-344, limits assumed, biotinylated (sites not given)).
T1 construct: It may be the same protein as m8 with biotin added; not shown: Fc part
T1 sequence (looked up): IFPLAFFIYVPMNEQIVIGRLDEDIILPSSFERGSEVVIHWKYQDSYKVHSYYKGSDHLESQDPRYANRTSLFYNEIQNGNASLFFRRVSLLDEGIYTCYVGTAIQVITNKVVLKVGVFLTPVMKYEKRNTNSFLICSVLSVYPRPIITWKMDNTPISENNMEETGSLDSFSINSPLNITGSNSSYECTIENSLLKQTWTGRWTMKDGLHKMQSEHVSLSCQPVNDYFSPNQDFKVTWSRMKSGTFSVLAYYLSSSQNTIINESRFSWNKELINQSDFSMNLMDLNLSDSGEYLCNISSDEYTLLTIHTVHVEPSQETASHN
Nature of the experiment: flow cytometry blocking assay; HHLA2-Fc binding to 300.19 KIR3DL3 cells with 10 ug/mL control IgG, against antigen only.

The target of experiment [5] is T1, biotinylated human HHLA2-Fc. Nature of the experiment: flow cytometry blocking assay; 10 ug/mL control IgG with 4 ug/mL biotinylated human HHLA2-Fc, added to 300.19 KIR3DL3 cells.
A further experiment concerns the target T2, recombinant HHLA2-Fc (UniProt Q9UM44 23-344, limits assumed).
T2 construct: Antigen in solution in the Octet assay; also called HHLA2-Fc antigen; not shown: Fc part
T2 sequence (looked up): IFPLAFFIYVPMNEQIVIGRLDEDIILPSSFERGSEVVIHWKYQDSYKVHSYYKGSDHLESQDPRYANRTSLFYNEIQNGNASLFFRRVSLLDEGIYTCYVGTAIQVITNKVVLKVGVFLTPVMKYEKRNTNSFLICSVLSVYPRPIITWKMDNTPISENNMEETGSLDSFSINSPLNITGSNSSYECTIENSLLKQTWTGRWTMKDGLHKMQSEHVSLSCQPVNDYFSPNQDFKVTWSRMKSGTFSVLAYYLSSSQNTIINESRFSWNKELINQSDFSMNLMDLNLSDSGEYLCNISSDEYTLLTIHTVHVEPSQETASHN
As to the kind of experiment: BLI (Octet, ForteBio); IgG captured on AHC sensor, 100 nM HHLA2-Fc in solution; avid. From the text: The avid affinity of the anti-HHLA2 antibodies for recombinant HHLA2-Fc was investigated. The Octet system from ForteBio was used to measure avid affinity of the anti-HHLA2 antibodies for recombinant HHLA2-Fc.

Experiment [6] concerns the target human HHLA2 over-expressed on 300.19 mouse pre-B leukemic cells (human) (UniProt Q9UM44). Nature of the experiment: flow cytometry; TMIGD2-Fc binding to 300.19 HHLA2 cells with 10 ug/mL IgG, against antigen only; binding is enhanced.
Experiment [7] addresses T1, biotinylated human HHLA2-Fc. As to the kind of experiment: flow cytometry blocking assay; HHLA2-Fc binding to 300.19 KIR3DL3 cells with 10 ug/mL IgG, against antigen only. How it is done: The ability of the anti-HHLA2 antibodies to block binding of HHLA2 to KIR3DL3 and enhance binding of HHLA2 to TMIGD2 was investigated. […] Alexa Fluor 633 conjugated streptavidin was added as a secondary detection reagent.

The target of experiment [8] is human HHLA2 over-expressed on 300.19 mouse pre-B leukemic cells (human) (UniProt Q9UM44). As to the kind of experiment: flow cytometry; 10 ug/mL IgG with 4 ug/mL biotinylated human TMIGD2-Fc, added to 300.19 HHLA2 cells; streptavidin-Alexa Fluor 633; binding is enhanced.
For another experiment, the target named is T3, recombinant HHLA2-His (UniProt Q9UM44 23-344, limits assumed).
T3 construct: Analyte in the Biacore assay; also called HHLA2-His analyte; not shown: His tag
T3 sequence (looked up): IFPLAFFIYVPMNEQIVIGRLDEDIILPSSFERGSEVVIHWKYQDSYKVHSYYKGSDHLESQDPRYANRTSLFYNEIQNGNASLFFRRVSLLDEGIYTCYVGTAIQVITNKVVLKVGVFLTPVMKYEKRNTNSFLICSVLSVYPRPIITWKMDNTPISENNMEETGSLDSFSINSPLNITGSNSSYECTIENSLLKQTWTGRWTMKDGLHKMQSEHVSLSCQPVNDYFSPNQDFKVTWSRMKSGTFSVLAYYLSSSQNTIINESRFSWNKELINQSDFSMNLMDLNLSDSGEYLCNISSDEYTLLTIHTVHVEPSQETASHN
As to the kind of experiment: SPR (Biacore, Cytiva); antibody captured on CM5 chip, HHLA2-His as analyte; monovalent. On the procedure:
Monovalent affinity was determined by capturing each antibody on an CM5 chip, followed by various concentrations of the HHLA2-His analyte.
Background: In SPR one partner is held on a chip, and binding of the other changes the refractive index at the surface.

In experiment [9] the target is human HHLA2 over-expressed on 300.19 mouse pre-B leukemic cells (human) (UniProt Q9UM44). Nature of the experiment: flow cytometry on 300.19 cells over-expressing human HHLA2, antibody titration, gMFI (aHu-APC).
Target sequence in this assay (Q9UM44 23-414): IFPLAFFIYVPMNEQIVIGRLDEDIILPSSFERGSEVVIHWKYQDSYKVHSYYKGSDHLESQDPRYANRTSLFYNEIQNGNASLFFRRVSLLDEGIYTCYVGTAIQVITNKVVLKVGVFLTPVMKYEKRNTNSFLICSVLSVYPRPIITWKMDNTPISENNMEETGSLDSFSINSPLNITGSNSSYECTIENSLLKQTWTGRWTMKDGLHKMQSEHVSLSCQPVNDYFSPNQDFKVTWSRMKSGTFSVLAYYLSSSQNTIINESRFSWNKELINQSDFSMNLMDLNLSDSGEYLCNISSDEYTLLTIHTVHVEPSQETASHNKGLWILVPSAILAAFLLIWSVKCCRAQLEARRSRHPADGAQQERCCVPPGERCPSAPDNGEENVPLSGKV
For experiment [10], the target named is T1, biotinylated human HHLA2-Fc. As to the kind of experiment: flow cytometry blocking assay, antibody titration: binding of human HHLA2-Fc to 300.19 cells over-expressing human KIR3DL3 (blocked partner), gMFI (anti-SA-APC).
Experiment [11] deals with human HHLA2 over-expressed on 300.19 mouse pre-B leukemic cells (human) (UniProt Q9UM44). As to the kind of experiment: flow cytometry, antibody titration: binding of human TMIGD2-Fc (enhanced ligand) to 300.19 cells over-expressing human HHLA2, % TMIGD2-Fc binding normalized to isotype.

The text below walks through data of patent US20250270323A1 (NEXTPOINT THERAPEUTICS, published 2025).

Turning to Isotype control (antibody), the Antigen Binding MFI Ratio (IgG blocked/antigen only) was found to be 1.6 in [1] and 0.9 in [4]. The 300.19-human HHLA2 cells FOB (fold over background) (fold over background) in [2] was found to be 22. This molecule also had a 300.19-human HHLA2 cells MFI in experiment [2] of 3290 MFI. In experiment [3], this molecule registered a Human TMIGD2-Fc Binding MFI for 300.19 HHLA2 cells of 943 MFI. For the same molecule, the Human HHLA2-Fc Binding MFI for 300.19 KIR3DL3 cells in experiment [5] amounted to 6990 MFI.

B1: Ab-60665 (antibody, human IgG4 S228P, kappa, V domains shown)
VH: QVQLVQSGAEVKKPGSSVKVSCKASGGTSSNYAISWVRQAPGQGLEWMGGIIPIFGTANYAQKFQGRVTITADESTSTAYMELSSLRSEDTAVYYCARSGTIWHDIWGQGTMVTVSS
VL: EIVLTQSPATLSLSPGERATLSCRASQSVSSYLAWYQQKPGQAPRLLIYDSSNRATGIPARFSGSGSGTDFTLTISSLEPEDFAVYYCQQVVHWPPTFGGGTKVEIKR
notes: tested as IgG
What is called Kd is the equilibrium constant for the complex coming apart. The koff is the first-order rate constant of dissociation. The term kon denotes a measure of how fast the partners come together. For the molecule B1, in the experiment with recombinant HHLA2-Fc, the Kd turned out to be 0.971 nM, the dissociation rate constant (koff) came out at 0.000189 s⁻¹ and the kon stood at 194000 M⁻¹ s⁻¹. In [2], this molecule showed a 300.19-human HHLA2 cells FOB (fold over background) (fold over background) of 820 and a 300.19-human HHLA2 cells MFI of 115000 MFI. Besides, in experiment [6], the Antigen Binding MFI Ratio (IgG blocked/antigen only) turned out to be 3.1. For the same molecule, in experiment [7], the “Antigen Binding MFI Ratio (IgG blocked/antigen only)” value worked out at 0 ratio. The Human TMIGD2-Fc Binding MFI for 300.19 HHLA2 cells in [8] was found to be 1860 MFI.

B2: Ab-60638 (antibody, human IgG4 S228P, kappa, V domains shown)
VH: QVQLVQSGAEVKKPGASVKVSCKASGYTFTSYAMHWVRQAPGQRLEWMGWINAGTGNTKYSQKFQGRVTITRDTSASTAYMELSSLRSEDTAVYYCARDLPHRGAFDPWGQGTLVTVSS
VL: EIVLTQSPGTLSLSPGERATLSCRASQSVSSDYLAWYQQKPGQAPRLLIYGASSRATGIPDRFSGSGSGTDFTLTISRLEPEDFAVYYCQLYGSAPRTFGGGTKVEIKR
notes: tested as IgG
For B2, in the experiment with recombinant HHLA2-Fc, the Kd worked out at 1.42 nM, the koff amounted to 0.000469 s⁻¹ and the kon was 330000 M⁻¹ s⁻¹. In experiment [2], this molecule registered a 300.19-human HHLA2 cells FOB (fold over background) (fold over background) of 394 and a 300.19-human HHLA2 cells MFI of 46900 MFI. In experiment [6], the Antigen Binding MFI Ratio (IgG blocked/antigen only) was 4.5. In experiment [7], the “Antigen Binding MFI Ratio (IgG blocked/antigen only)” value was 0 ratio. The Human TMIGD2-Fc Binding MFI for 300.19 HHLA2 cells in experiment [8] was 2730 MFI.

B3: Ab-65890 (antibody, human IgG1, V domains shown)
VH: QVQLVQSGAEVKKPGASVKVSCKASGYTFNSYRMHWVRQAPGQRLEWMGSIPAGTGNTVYSQKFQGRVTITRDTSASTAYMELSSLRSEDTAVYYCARDRGGYYYDSWDDWGQGTLVTVSS
VL: DIQMTQSPSSLSASVGDRVTITCRASQSISSYLNWYQQKPGKAPKLLIYGASSLQSGVPSRFSGSGSGTDFTLTISSLQPEDFATYYCQQVPFEPPTFGGGTKVEIK
notes: tested as IgG
One may read the EC50 (read off the curve) as the concentration at which the effect is half-maximal. As to B3, in the experiment with recombinant HHLA2-His, the Kd was 0.765 nM, the dissociation rate constant (koff) turned out to be 9.28e-05 s⁻¹ and the kon came out at 123000 M⁻¹ s⁻¹. The EC50 (read off the curve) in experiment [9] was found to be 0.1 mg/L. For the same molecule, the “IC50 (read off the curve)” value in experiment [10] was around 1 mg/L.

B4: Ab-65886 (antibody, human IgG1, kappa, V domains shown)
VH: QVQLVQSGAEVKKPGASVKVSCKASGYTFEKYAMHWVRQAPGQRLEWMGFIPAGTGNTKYSQKFQGRVTITRDTSASTAYMELSSLRSEDTAVYYCARDRGGYYYDSWDDWGQGTLVTVSS
VL: DIQMTQSPSSLSASVGDRVTITCRASQSISSYLNWYQQKPGKAPKLLIYGASSLQSGVPSRFSGSGSGTDFTLTISSLQPEDFATYYCQQVAFTPPTFGGGTKVEIKR
notes: tested as IgG
As to B4, in the experiment with recombinant HHLA2-His, the Kd was 11.3 nM, the koff turned out to be 0.00688 s⁻¹ and the kon is 609000 M⁻¹ s⁻¹. This molecule also registered an EC50 (read off the curve) in experiment [9] of 0.1 mg/L. In experiment [10], the “IC50 (read off the curve)” value is around 1 mg/L.

B5: Ab-65885 (antibody, human IgG1, kappa, V domains shown)
VH: QVQLVQSGAEVKKPGASVKVSCKASGYTFDSYKMHWVRQAPGQRLEWMGYIPAGTGNTKYSQKFQGRVTITRDTSASTAYMELSSLRSEDTAVYYCARDRGGYYYDSWDDWGQGTLVTVSS
VL: DIQMTQSPSSLSASVGDRVTITCRASQSISSYLNWYQQKPGKAPKLLIYGASSLQSGVPSRFSGSGSGTDFTLTISSLQPEDFATYYCQQVAFTPPTFGGGTKVEIKR
notes: tested as IgG
As to B5, in the experiment with recombinant HHLA2-His, the Kd was 5.82 nM, the koff stood at 0.00205 s⁻¹ and the kon came to 325000 M⁻¹ s⁻¹. In addition, in experiment [9], the EC50 (read off the curve) worked out at 0.1 mg/L. Besides, in experiment [10], the “IC50 (read off the curve)” value is around 1 mg/L.

B6: Ab-65887 (antibody, human IgG1, kappa, V domains shown)
VH: QVQLVQSGAEVKKPGASVKVSCKASGYTFEQYAMHWVRQAPGQRLEWMGFIPAGTGNTKYSQKFQGRVTITRDTSASTAYMELSSLRSEDTAVYYCARDRGGYWYDSWDDWGQGTLVTVSS
VL: DIQMTQSPSSLSASVGDRVTITCRASQSISSYLNWYQQKPGKAPKLLIYGASSLQSGVPSRFSGSGSGTDFTLTISSLQPEDFATYYCQQVVFTPPTFGGGTKVEIKR
notes: tested as IgG
B6: in the experiment with recombinant HHLA2-His, the Kd stood at 16.5 nM, the koff is 0.0148 s⁻¹ and the on-rate (kon) was 900000 M⁻¹ s⁻¹. Besides, in experiment [9], the EC50 (read off the curve) came to 0.1 mg/L. In experiment [10], the “IC50 (read off the curve)” value is around 1 mg/L.

B7: Ab-65889 (antibody, human IgG1, kappa, V domains shown)
VH: QVQLVQSGAEVKKPGASVKVSCKASGYTFASYKMHWVRQAPGQRLEWMGDIPAGTGNTHYSQKFQGRVTITRDTSASTAYMELSSLRSEDTAVYYCARDRGGYYYDSWDDWGQGTLVTVSS
VL: DIQMTQSPSSLSASVGDRVTITCRASQSISSYLNWYQQKPGKAPKLLIYGASSLQSGVPSRFSGSGSGTDFTLTISSLQPEDFATYYCQQVPFEPPTFGGGTKVEIKR
notes: tested as IgG
For the molecule B7, in the experiment with recombinant HHLA2-His, the Kd worked out at 0.894 nM, the koff came to 0.000114 s⁻¹ and the kon is 128000 M⁻¹ s⁻¹. This molecule also had a concentration for a half-maximal effect (EC50 (read off the curve)) in [9] of 0.1 mg/L. Moreover, in experiment [11], the EC50 (read off the curve) came to 0.1 mg/L. Also, in experiment [10], the “IC50 (read off the curve)” value is around 1 mg/L.
